In the assay the target is T1, hTIGIT expressed on Jurkat reporter cells (hTIGIT/NFAT-luciferase) (human, UniProt Q495A1 22-244).
T1 sequence (looked up): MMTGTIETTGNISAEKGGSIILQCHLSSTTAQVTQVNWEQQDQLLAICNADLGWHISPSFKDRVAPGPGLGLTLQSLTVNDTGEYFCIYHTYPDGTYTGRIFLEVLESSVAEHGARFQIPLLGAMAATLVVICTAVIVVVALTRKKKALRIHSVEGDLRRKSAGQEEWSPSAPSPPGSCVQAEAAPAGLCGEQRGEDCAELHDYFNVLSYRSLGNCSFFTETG
Nature of the assay: cell-based or functional assay.

B1: humanized anti-TIGIT monoclonal antibody hu20 (antibody, human IgG4 S228P, kappa, V domains shown)
VH: QVQLVQSGAEVKKPGASVKVSCKTSGYAFTEYTMHWVRQAPGKGLEWMGGINPNTGGTTYNQKFQGRVTLTVDKSSSTAYMELSSLRSEDTVVYYCAKLLRLMYYFDYWGQGTLVTVSS
VL: DIQMTQSPSSLSASVGDRVTITCQASQDVRTAVAWYQQKPGKAPKLLIYSASYRYTGVPSRFSGSGSGTDFTFTISSLQPEDIATYYCHQHYITPWTFGGGTKVEIKR
In the case of B1, the “EC50 of T cell activation; luminescence of Jurkat hTIGIT/NFAT-luciferase reporter cells co-cultured with CHO cells expressing hPVRL2” value came to 0.0424 µg/mL.

These data come from patent US20240067720A1 (SHANGHAI JUNSHI BIOSCIENCES, published 2024).
